In the nanobody polyreactivity screen of Harvey et al. (2022):

Assay: yeast display, Sf9 membrane polyspecificity reagent, FACS + sequencing; frameworks hold sequencing errors
Method in brief: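 In a synthetic yeast display library (Saccharomyces cerevisiae BJ5465), nanobody expression was induced with galactose for 36–48 hours. FACS gates were set low and high (top ~1%) using anti-HA fluorescence for expression and streptavidin fluorescence for binding of the Sf9 membrane reagent. Each polyreactivity label is drawn from the gate of origin.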

QVQLVESGGGLVQAGGSLRLSCAASGSIFLAYAMGWYRQAPGKEMELVATISVSGTTTYYADSVKGRFTISRDNAKNTVYLQMNSLKPEDTAVYYCAADQQDGLWDYQDWYDYWGQGTQVTVSS
polyreactivity (PSR sort gate): low polyreactivity

QVQLVESGGGLVQAGGSLRLSCAPSGRIFWFNMGCYRQAPGKERELVAAINSGGRTNYADSVKGRFTISRDNAQNTVYLQMNSLKPEDTAVYYCNARYYQVRRWYHYDYSGQGTQVTVSS
polyreactivity (PSR sort gate): high polyreactivity

QVHLVESGGGLVQAGGSLRLSCAASGFTFLKNAMVWNRQAPWKERELVAAITSSGGRTYYADSVKGRFTISRDNAKNTVYLQMNSLKPEDTAVYYCNKGPLPGYDYWGQGTQVTVSS
polyreactivity (PSR sort gate): high polyreactivity

QVQLVESGGGLDQEGGSLRLSCAASGSIFFWNDMGWYRQAPGKERELVAAISWSGGSTSYADSVKGRFTISRDNAKNTVYLQMNSLKPEDTAVYYCAAEYTYGSPYDYWGQGTQVTVSS
polyreactivity (PSR sort gate): low polyreactivity

QVQLVESGGGLVQAGGSLRLSCAASGSIFYVYAMGWYRQAPGKERELVAAITWSGGSTYYADSVKGRFTISRDNAKNTVYLQMNSLKPEDTAVYYCAADEGYDYPYYYWGQGTQVTVSS
polyreactivity (PSR sort gate): high polyreactivity

QVQLVESGGGLDQAGGSLRLSCAASGSTSLSYAMGWYRQAPGKERELVAAISRGGSTTYADSVKGRFTISRDNAKNPVYFQMKSLKPVDTAVYYCAVGYDIVRYSYSPFYRYDYWGQGTQVTVSS
polyreactivity (PSR sort gate): low polyreactivity

PVQLVESGGGLVQAGGSLRLSCAASGSTFYPNAMGWYRQAPGKEWELVAASTAGGSTYYADSVKGRFTISRDNAKNTVYLQMTSLKPEDTAVYSCAADFYWYWWQDWYDYWGQGTQVTVSS
polyreactivity (PSR sort gate): high polyreactivity

QVQLVESGGGLVQAGGSLRLSCAASGSTFYNNAMGWYRQAPGKERELVAAITSSVGSTHYADSVKGRFTISRDNAKNTVYLQMNSLKPEDSAVYYCNARGRLYGHLYDYWGQGTQVTVSS
polyreactivity (PSR sort gate): low polyreactivity

QVQLVESGGGLVQAGGSLRLSCAASGYTFKSYFTGWYRQAPAKERELVAAITSIGGSTYYADSVKGRFTISRDNAKNTVYFLMNSVKPEDTEVYYCAKRRRGYAFSSDYWGPGTQVTVSS
polyreactivity (PSR sort gate): high polyreactivity

QVQLVESGGGLVQAGGSLRLSCAASGFTFRLYTMGWYRQAPGKERELVAAITYSGDSTYYADSVKGRFTISRDNAKNTVYLQMNSLKPEDTAVYYCAARKYYARYYWGQGTQVTVSS
polyreactivity (PSR sort gate): high polyreactivity

QVQLVESGGGLVQAGGSLRLSCAASGSIFYYNAMGWYRQPPGKERELVAAISWSGDSTYYADSVKGRFTISRDNAKNTVYLQMNSLKPEDTAVYYCNTELVPWTEYWYDYWGQGNQVTVSS
polyreactivity (PSR sort gate): low polyreactivity

QVQLVESGGGLVQAGGSLRLSCAASGSTFVENAMGWYRQAPGKERELVAAISSSGDSTFYADSVKGRFTISRDNAKNTVYLKMNSLKPEDTAVYYCAADRRINYDGLDMDYWGQGTQVTVSS
polyreactivity (PSR sort gate): low polyreactivity

QVQLVESGGGLVQAGGSLRLSCAASGRTFRYYAMGWYRQAPGKERELVATISKSGGSTYYADSVKGRFTISRDNAKNTVYLQMNSLKPVDTAVYYCAAVGPYRWYDYWGQGTQVTVSS
polyreactivity (PSR sort gate): high polyreactivity

QVHIVESGGGLVQAGGRLRLSCADSGTTFSYYTMGWYRQSPGKERELVAAISTSGGSTYYADSVKGRFTISRDNAKNTVYLQMNSLKPEDTAVYYCDARYGRYYKYNYWGQGTQVTVSS
polyreactivity (PSR sort gate): high polyreactivity

QVQLVESGGGLVQAGGSLRLSCAASGRTFYGYVMGWYRQAPGKERELVAAISRSVGSTYYADSVKGRFTISRDNAKNTVYLQMNSLKPEDTAVYYCATSVYGGVDYWGQGTQVTVSS
polyreactivity (PSR sort gate): high polyreactivity

QVQLVESGGGLVQAGGSLRLSCAASGRTSFHYAMGWYRQAPGKERELVAAINWNGGRTYYADSVKGRFTISRDNAKNTVYLQMNSLKPEDTAVYYCAARLSYLGGYDYWGQGTQVTVSS
polyreactivity (PSR sort gate): high polyreactivity

QVQLVETGGGLVQAGGSLRLSCAASGFIFPGNMGWDRQAPGKDRELVAAISWSGGSTRYADSVKGRFTISRDNAKNTVYLQMNSLKPEDTAVYYCAASLSGKRFTKRYYWGQGTQVTVSS
polyreactivity (PSR sort gate): high polyreactivity

QLQLVESGGGLVQAGGSLRLSCAATGRIFRFYALGWYRQATGKERELVADISRRGGSTYFADSVKGRFTISRDNAKNTVYVQMTSLKPEDTAVYYCNARWYRTGSTYHEDYWGQGTQVTVSS
polyreactivity (PSR sort gate): high polyreactivity

QVQLVESGGGLVQAGGSLRLSCAASGFTLGWYAKGWYRQAPGKERELVASINWDGGSTYYADSVKVRFTISRDNAKNTVYLPMNSLKAEDTAVDYWAAPPGGGGGIGYDSWGQGTQVTVSS
polyreactivity (PSR sort gate): high polyreactivity

QVQLVETRGGLVQAGVSLRLICSASGSTFAPKSIGLYRQAPGKERELVAGLSWGDSTYYADSVKGRFTISRDNAKNTVYLQMISLKPEDTAVYFCAVRWVWNPCGIQGDWAVDYDYWGQGTQVTVSS
polyreactivity (PSR sort gate): low polyreactivity

QVQLVESGGGLVQAGGSLRLSCAASGRIFDLNVMGWYRQAPGKERELVAAIRSGGRTNYADSVKGRFTISRDNAKNTVYLQMNSLKPEDTAVYYCNVRRGYWHPGYGWANYDYWGQGTQVTVSS
polyreactivity (PSR sort gate): high polyreactivity

QVQLVESGGGLVQAGGSLRLSCAASGSIFWYYAMGWYRQAPGKERELVASISRRGGSTYYADSVKGRFTISRDNAKNTVYLQMNSLKPEDTAVYYCAAYSRTTCSTVQGTYDYWGQGTQVTVSA
polyreactivity (PSR sort gate): low polyreactivity

QVQLVESGGGLVQAGGSLRLSCAASGTTFARNAMGWYRQAPGKERELVAVISYSGGSSYADSVKGRFTISRDNAKNTVYFHMKSLKPEVTAVYYCAARAWYPSRYDFWGQGTQVIVSS
polyreactivity (PSR sort gate): high polyreactivity

QVQLVESGGGLVQAGGSLRLSCAASGSIFGVYAMRWYRQAPGKERELVATISRSGAITYYADSVKGRFTISRDNAKNTVYLQMNSLKPEDTAVYYCAADFFSRDWGQGTQVTVSS
polyreactivity (PSR sort gate): low polyreactivity

QVQLVESGGGLVQAGGSLRLSCAASGSIFPAYAMGWYRQAPGKERELVAAITGSGGSTYYADSVKGRFTISRDNAKNTVYLQMNSLKPEDTAVYYCAATIRQYRRYDYWGQGTQVTVSS
polyreactivity (PSR sort gate): low polyreactivity

QVQLVESGGGLVQAGGSLRLSCAASGFTFLRYAMGWYRQAPGKERELVAAITRGGTTYYADSVKGRFTISRDNAKNTVYLQMNSLKPEDTAVYYCNTLTSYTRYNYWGQGTQVTVSS
polyreactivity (PSR sort gate): high polyreactivity

QVQLVESGGGLGQAGGSLRLSCAASGFIFTPYTMGWYRQAPGKERELVAAITDGSSTYYADSVKGRFTISRDNAKNTVYLQMNSLKQEDTAVYYCNDDGKPPYISWLYDYWGLGTQVTVSS
polyreactivity (PSR sort gate): low polyreactivity

QVQLVESGGGLVQAGGSLRLSCPDSGLIFVANAMGWYIQAPGKERELVAAISRSGGITYYADSVKGRFTISRDNATNTVYLKMNSLKPADTEVYYCAKTLPSNGHYDYWGQGTQVTVSS
polyreactivity (PSR sort gate): low polyreactivity

QVQLVESGGGLVQAGGSLPLSCAASGRIFYFNAMGWYRPAPGKEREFVASINSIGDSTYYADSVKGRFTISRDNAKKTVYLQMHSLKPEDTAVYYCNADHGVINYRLDYWGQGTQVTVSS
polyreactivity (PSR sort gate): low polyreactivity

QVQLVESGGGLVQAGGSLRLSCAASGITIKYYTMGWYRQANGKERELVAAISRSGGSTYYADSVKGRFTISLDNAKNTVYLQMNSMIPEDTAVYYCAAERVAYRGVTFPYGYWGQGTQVTVSS
polyreactivity (PSR sort gate): high polyreactivity

QVQLVESGGGLVQAGGSLRLSCPASGSTIFGTAMGWYRQAPGKDWELVAASSYSGDSTYYADSVKGRFTISRDNAKHTVYVEMISLKPEDTAVYYCAAGFVIKYDYWGQGTQVTVSS
polyreactivity (PSR sort gate): low polyreactivity

QVQLVESGGGLVQAGGSLRLSCAASGRTFYPYAMGWYRQEPGKVRELVARISSGGNTKYADSVKGRFTISRDNAKNTVYLQMNSLKPEDTAVYYCNAAHYDYVAWKRFNYWGQGTQVTVSS
polyreactivity (PSR sort gate): high polyreactivity

QVQLVESGGGLVQAGGSLRLSCAASGFIFVYYGMGWYRQAPGKERELVAAISRSGGSTYYADSVKGRFTISRDNAKNTVYLQMNSLKPEDTAVYYCAARPDRSSQFDSWGQGTQVTVSS
polyreactivity (PSR sort gate): high polyreactivity

QVQLVESGGGLVQAGGSLRLSCAASGFTFVRYAMGWYRQAPGKERELVAAISRGGGRTSYADSVKGRFTISRDNAKNTVYLQMNSLKPEDTAVYYCATGTYAAAQGTRYYYLGQGTQVTVSS
polyreactivity (PSR sort gate): high polyreactivity

QVQLVESGGGLVQAGGSLRLSCAASGSTIVNNAMGWYIQAPGKERELVAAIRSSDGRTYYADSVKGRFTISRDNAKNTVYLQMNSLKPEDTAVYYCNRRYRKYSSAKYDYWGQGTQVTVSS
polyreactivity (PSR sort gate): high polyreactivity

QVQLVESGGGLVQAGGSLRLSCAASGLIFGTNAMGWYRQAPGKERELVAAISGSGGRTYYADSVKGRFTISRDNAKNTVYLQMNSLKPEDTAVYYCAADYVYGTRDDYWGQGTQVTVSS
polyreactivity (PSR sort gate): high polyreactivity

QVQLVESGGGLVQAGGSLRLSCAASGSTFSVNAMGWYRQAPGKEREFVAAITYSGGSTYYADSVKGRFTISRDNAKNTVYLQMNSLKPEDTAVYYCNRDTRYYWKRYGYWGQGTQVTVSS
polyreactivity (PSR sort gate): high polyreactivity

QVQLVESGGGLVQAGGSLRLSCAASGSTFKSYAMGWYRPAPGKERELVAAISSSGGSTYYADSVKGRFTISRDNAKNTVYLQMNSLKPEDTAVYYCNAVWVQGGIGNYWGQGTQVTVSS
polyreactivity (PSR sort gate): low polyreactivity

QVQLVESGGGLVQAGGSLRLSCAASGSIFRSNAMGWYRQAPGKERELVAVIRSGGTTNYADSVKGRFTISRDNAKNTVYLQMNSLKPEDTAVYYCAAYGAHGGVIVVEGDYWGQGTQVTVSS
polyreactivity (PSR sort gate): low polyreactivity

QVQLVESGGGLVQAGGSLRLSCAASGSIFRNYAMGLYRQAPGKERELVAAISSRGGTTHYADSVKGRFTISRDNAKNTVYLQMNSLKPEDTAVYYCAADYYLATNPAPLAAGRGYWGQGTQVTVSS
polyreactivity (PSR sort gate): high polyreactivity

QVQLVESAGGLVQAGGSLRLICADSGSIFSNDAMGWYTQAPGKERELVAAITNGVSTNYADSVKGRFTISRDNAKNTVYLPMNSLIPEDTAVYYCAAVSRSYYNSYNYWGQGTQVTVSS
polyreactivity (PSR sort gate): high polyreactivity

QVQLVESGGGLVQAGGSLRLSFAASGSIFSYYPMGWYSQAPGKERELVAAISTSGGRTYYADSVKGRFTISRDNEKNTVYLQLYSLKPEDTPVYYCAAPVRWKNYDYWGQGTQVTVSS
polyreactivity (PSR sort gate): high polyreactivity

QVQLVESGGGLVQAGGSIRLSCAASGRTFSKYTMGWYRQAPGKERELVAVISRSGTRTYYADSVKGRFTISRDNAKNTVYLQMNSLKAEDTAVYYCAAKDERRSFGMGYWGQGTHVTVSS
polyreactivity (PSR sort gate): high polyreactivity
